Assays:
[1] = test system: adenosine in the lungs of ADA deficient mice; test: Quantification of adenosine in lungs (reversed phase HPLC) after PEGADA; type: in vivo
Experimental: FIG. 5A and FIG. 5B. Reversible lung eosinophilia and lung adenosine levels in ADA deficient mice treated with PEGADA. FIG. […] Differentials were determined by counting 200 cells from BALF cytospins of each sample, and multiplying the percentage of each cell type found by the total number of cells in the BALF. Mean values are given as total cells (S.E.M.). FIG. […] Mean values are given as nanomoles adenosine per mg protein±S.E.M.
PEGADA, also known as ADAGEN, was obtained through collaboration with Enzon Inc. (Piscataway, N.J.). Control or ADA deficient mice were lightly anesthetized and injected intramuscularly with 10 microlitetrs of PEGADA corresponding to approximately 2.5 Units of ADA. […] Levels of ADA enzyme activity in tissues was measured using zymogram analysis according to established procedures (Blackburn et al., 1998). […]
Mice were anesthetized with avertin, the thoracic cavity exposed, and the lungs were removed and frozen rapidly in liquid nitrogen to prevent metabolism of adenine nucleotides and nucleosides. Adenine nucleosides were extracted from frozen lungs using 0.4 N perchloric acid as described (Knudsen et al., 1992), and adenosine was separated and quantitated using reversed phase HPLC according to established procedures (Knudsen et al., 1992). […]

[2] = test system: ADA deficient mice; test: ELISA of serum IgE and BALF cytokines after PEGADA; type: in vivo; settings: PEGADA enzyme therapy
Experimental: IFNg, IL-4 and IL-5 levels in BALF were determined using specific murine OptiEA ELISA kits from Pharmagen according to manufactures instructions. For the analysis of IgE levels, blood was collected from the heart of anesthetized mice and the serum separated by centrifugation of samples at 3,000 rpm for 10 min a 4 degrees C. A murine OptiEA ELISA kit from Pharmagen was utilized to quantitate serum IgE levels. Values were read and quantitated at linerarity using a MRX II plate reader equipped with Revelation software (Dynex Technologies).
PEGADA, also known as ADAGEN, was obtained through collaboration with Enzon Inc. (Piscataway, N.J.). Control or ADA deficient mice were lightly anesthetized and injected intramuscularly with 10 microlitetrs of PEGADA corresponding to approximately 2.5 Units of ADA. Injections were given either chronically every 4 days starting at postnatal day 4, or acutely, as one injection on postnatal day 18. Levels of ADA enzyme activity in tissues was measured using zymogram analysis according to established procedures (Blackburn et al., 1998). This procedure visualizes enzyme activity on non-denaturing agarose gels (Blackburn et al., 1998).
(§1) Cell populations were monitored in BALF collected from ADA deficient mice 72 hours following treatment with PEGADA (FIG. 5A), in order to determine what effect PEGADA treatment had on lung inflammation. […]

[3] = test system: ADA deficient mice; test: PEGADA enzyme therapy of ADA deficient mice: respiratory status and survival; type: in vivo
Description: The inventors contemplate that PEGADA treatments may be chronic or acute. In preferred chromic treatments a constant level of PEGADA is maintained in the mouse at concentrations of 150 to 300 U/Kg. In preferred acute treatments, a single dose of PEGADA (300 U/Kg) is given.
For chronic treatment of the mice of the present invention, litters are given an intramuscular injection of PEGADA at four days of postnatal file. The initial dose of PEGADA given is approximately 300 U/Kg body weight, where U (unit) is defined as 1 μmole adenosine converted to inosine per minute. this dose is within an order of magnitude of that given to treat ADA deficient humans. Mice were treated every four days with a dose of 150 to 300 U/Kg.
For acute treatment of the mice of the present invention, mice are injected intramuscularly once on postnatal day 18 with 300 U/kg PEGADA.
PEGADA, also known as ADAGEN, was obtained through collaboration with Enzon Inc. (Piscataway, N.J.). Control or ADA deficient mice were lightly anesthetized and injected intramuscularly with 10 microlitetrs of PEGADA corresponding to approximately 2.5 Units of ADA. […] Levels of ADA enzyme activity in tissues was measured using zymogram analysis according to established procedures (Blackburn et al., 1998). This procedure visualizes enzyme activity on non-denaturing agarose gels (Blackburn et al., 1998).
Polyethylene glycol modified ADA (PEGADA) enzyme therapy is a lifesaving strategy used to treat ADA deficient humans (Hershfield et al., 1993). […] The inventors treated ADA deficient mice with intramuscular injections of PEGADA (ENZON, Inc.; Piscataway, N.J.) in an attempt to modulate the respiratory distress seen. Mice were treated intramuscularly with 300 units of PEGADA. […] Even more striking was the observation that PEGADA could reverse the phenotype of an ADA deficient animal after its onset. ADA deficient animals were allowed to develop severe lung inflammation and damage (day 17), and were then treated with PEGADA.

[4] = test system: ADA deficient humans; settings: weekly intramuscular injection; cited from earlier work
[5] = test system: ADA deficient mice; test: Cellular differentials in bronchial alveolar lavage fluid (BALF) after PEGADA; type: in vivo
Experimental: FIG. 5A and FIG. 5B. Reversible lung eosinophilia and lung adenosine levels in ADA deficient mice treated with PEGADA. FIG. 5A, Total cellular differentials of cells collected from BALF of 18-day old control mice (n=19), ADA deficient mice (n=12) and ADA deficient mice treated with PEGADA and examined 72 hours later (n=5). Differentials were determined by counting 200 cells from BALF cytospins of each sample, and multiplying the percentage of each cell type found by the total number of cells in the BALF. Mean values are given as total cells (S.E.M.). FIG. 5B, Adenosine levels were quantitated in the lungs of 18-day old control mice (n=5), ADA deficient mice (n=4), and ADA deficient mice treated with PEGADA and examined 72 hours later (n=4). Mean values are given as nanomoles adenosine per mg protein±S.E.M.
Mice were anesthetized with avertin and the trachea exposed using blunt dissection. After securing a blunted 21-gauge needle into the trachea, the lungs were lavaged 5 times with 0.25 ml PBS. Lavages from individual animals were pooled and on average 0.95 to 1 ml of lavage fluid was recovered. Samples were centriflged at 2,500 rpm for 5 min to recover cells. Supernatant from these spins were collected and stored at −70 degrees C. for the analysis of cytokines. Cells were resuspended in 200 microliter PBS, an aliquot counted using a hemocytometer and another aliquot cytospun onto microscope slides where cells were stained with Diff-Quick (Dade) for cellular differentials. […] cells per sample were identified and counted under oil immersion.
PEGADA, also known as ADAGEN, was obtained through collaboration with Enzon Inc. (Piscataway, N.J.). […] Levels of ADA enzyme activity in tissues was measured using zymogram analysis according to established procedures (Blackburn et al., 1998). […]
as §1

[6] = weekly intramuscular injections of PEGADA from birth
[7] = 72 hours following treatment with PEGADA

B1: PEGADA: ADA polypeptides conjugated to polyethylene glycol; also known as ADAGEN, obtained from Enzon Inc. (protein, UniProt P56658 2-363, looked up)
Adenosine deaminase: AQTPAFNKPKVELHVHLDGAIKPETILYYGRKRGIALPADTPEELQNIIGMDKPLSLPEFLAKFDYYMPAIAGCREAVKRIAYEFVEMKAKDGVVYVEVRYSPHLLANSKVEPIPWNQAEGDLTPDEVVSLVNQGLQEGERDFGVKVRSILCCMRHQPSWSSEVVELCKKYREQTVVAIDLAGDETIEGSSLFPGHVKAYAEAVKSGVHRTVHAGEVGSANVVKEAVDTLKTERLGHGYHTLEDATLYNRLRQENMHFEVCPWSSYLTGAWKPDTEHPVVRFKNDQVNYSLNTDDPLIFKSTLDTDYQMTKNEMGFTEEEFKRLNINAAKSSFLPEDEKKELLDLLYKAYGMPSPASAEQCL
modifications: PEG conjugate (pegademase)
accumulation of adenosine in the lung [1]: prevents the accumulation of adenosine in the lung
adenosine levels in ADA deficient lungs ([1]; 72 hrs following treatment with PEGADA, control < 0.2, untreated ADA deficient 6.3 nmoles/mg protein): lowered to near control levels
levels of BALF cytokines [2]: no effect
levels of serum IgE [2]: no effect
rescue of ADA deficient mice that without treatment die by three weeks of age ([3]; chronic treatment, intramuscular, approx. 300 U/Kg at postnatal day 4, then every four days 150 to 300 U/Kg): sufficient to rescue ADA deficient mice
recovery and survival ([3]; treated after onset of severe lung inflammation and damage (day 17)): recovered and survived as long as they were maintained on PEGADA
respiratory status ([3]; treated after onset of severe lung inflammation and damage (day 17), within 24 to 48 hours): noticeably improved
development of pulmonary problems [3, 6]: never develop pulmonary problems
survival [3, 6]: survive as long as the animals are maintained on PEGADA
outcome when PEGADA therapy was stopped ([3]; withdrawal of PEGADA therapy): rapidly showed signs of pulmonary insufficiency and died within a week
accumulation of ADA substrates in ADA deficient humans [4]: prevents the accumulation of ADA substrates
alveolar macrophages in BALF [5, 7]: remained elevated
number of eosinophils in BALF [5, 7]: greatly reduced
number of eosinophils found in the BALs ([5]; treatment with PEGADA, as stated in Example 9): decrease in the number of eosinophils

— patent US20020088017A1, “Adenosine deaminase deficient transgenic mice and methods for the use thereof” (Board of Regents, The University of Texas System, priority 1999, published 2002)
